B1: GFP-KASH-2 (domain or fragment)
chain: not shown
B2: GFP-KASH-3α (domain or fragment, mouse, UniProt Q4FZC9 917-975, looked up)
chain: CSLLQKACRVALPLQLLLLLFLLLLFLLPAGEEERSCALANNFARSFALMLRYNGPPPT
B3: GFP-KASH-1 (domain or fragment)
chain: not shown

This is an account of results in PMC3539201 (Journal of cell science, 2008).

The assay has as its target T1, torsinA (endogenous, 293T cells) (human (endogenous in 293T), UniProt O14656 21-332).
T1 sequence (looked up): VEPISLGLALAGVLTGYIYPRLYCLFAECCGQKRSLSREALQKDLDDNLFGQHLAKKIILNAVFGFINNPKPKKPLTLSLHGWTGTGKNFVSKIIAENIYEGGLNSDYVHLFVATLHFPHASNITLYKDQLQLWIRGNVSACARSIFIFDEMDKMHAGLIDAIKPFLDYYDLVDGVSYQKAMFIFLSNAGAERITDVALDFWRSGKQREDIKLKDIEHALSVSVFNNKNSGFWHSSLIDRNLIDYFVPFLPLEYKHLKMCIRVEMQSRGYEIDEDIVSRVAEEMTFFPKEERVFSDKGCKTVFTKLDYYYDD
Put plainly: co-IP.
On to B1, for which the “percentage immunoprecipitated from lysates by torsinA antibodies” value is 12%.
B2: the “percentage immunoprecipitated from lysates by torsinA antibodies” value is 11%.
The result for B3 reads 21%.
